Results published in paper PMC11662680.
Like-named read-outs stand apart in the source and are kept apart here.

Experiments:
[1] = target: CapW from Rhizobium leguminosarum (Rhizobium leguminosarum); experiment: crystal structure
Ec CapW WT = target: T1, Ec CapW WT (Escherichia coli upec-117, UniProt P0DX76 1-299); experiment: fluorescence polarization
T1 sequence: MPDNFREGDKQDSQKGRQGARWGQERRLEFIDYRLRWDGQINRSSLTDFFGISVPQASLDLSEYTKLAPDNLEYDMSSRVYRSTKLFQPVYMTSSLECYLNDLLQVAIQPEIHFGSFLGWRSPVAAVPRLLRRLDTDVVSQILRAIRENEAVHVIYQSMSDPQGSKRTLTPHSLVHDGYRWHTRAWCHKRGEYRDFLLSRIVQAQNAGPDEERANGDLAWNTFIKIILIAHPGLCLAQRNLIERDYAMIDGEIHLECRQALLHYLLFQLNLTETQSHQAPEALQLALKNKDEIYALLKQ

Rl CapW WT = target: T2, Rl CapW WT (Rhizobium leguminosarum, UniProt PDB:9C5G_1 1-299); experiment: X-ray crystallography
T2 sequence: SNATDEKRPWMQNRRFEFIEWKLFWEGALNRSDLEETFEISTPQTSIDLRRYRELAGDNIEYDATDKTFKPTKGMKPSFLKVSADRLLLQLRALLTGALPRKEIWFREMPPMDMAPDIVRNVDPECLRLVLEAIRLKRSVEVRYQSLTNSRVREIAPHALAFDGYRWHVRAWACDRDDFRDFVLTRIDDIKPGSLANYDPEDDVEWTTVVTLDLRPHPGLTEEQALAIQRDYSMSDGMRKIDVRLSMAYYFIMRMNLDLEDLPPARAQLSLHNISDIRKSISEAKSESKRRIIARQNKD

Ec CapW R200A [2] = target: T3, Ec CapW R200A (Escherichia coli upec-117, UniProt P0DX76 1-299, R200A); experiment: fluorescence polarization
T3 sequence: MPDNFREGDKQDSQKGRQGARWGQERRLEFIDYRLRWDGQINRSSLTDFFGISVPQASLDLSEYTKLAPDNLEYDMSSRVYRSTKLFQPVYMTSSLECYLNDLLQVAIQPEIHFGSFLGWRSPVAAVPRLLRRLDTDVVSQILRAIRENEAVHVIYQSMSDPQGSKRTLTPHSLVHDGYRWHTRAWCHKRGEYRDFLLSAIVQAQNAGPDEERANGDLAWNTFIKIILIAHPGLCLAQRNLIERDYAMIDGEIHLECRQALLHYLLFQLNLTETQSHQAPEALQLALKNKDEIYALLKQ

Ec CapW S158E [3] = target: T4, Ec CapW S158E (Escherichia coli upec-117, UniProt P0DX76 1-299, S158E); experiment: fluorescence polarization
T4 sequence: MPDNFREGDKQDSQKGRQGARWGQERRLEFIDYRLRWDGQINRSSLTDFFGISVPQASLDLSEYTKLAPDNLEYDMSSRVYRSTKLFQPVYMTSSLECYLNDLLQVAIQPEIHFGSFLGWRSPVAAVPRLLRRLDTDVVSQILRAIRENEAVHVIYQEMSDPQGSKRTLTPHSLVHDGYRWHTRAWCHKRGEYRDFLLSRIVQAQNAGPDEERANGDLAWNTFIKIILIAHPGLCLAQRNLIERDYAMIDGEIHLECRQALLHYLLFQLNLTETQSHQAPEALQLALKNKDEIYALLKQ

Ec CapW R200A [4] = target: T3, Ec CapW R200A; experiment: fluorescence polarization; remark: listed apart in the source
Ec CapW S158E [5] = target: T4, Ec CapW S158E; experiment: fluorescence polarization; remark: listed apart in the source

For “CapW from Rhizobium leguminosarum (natural protein)”, the stoichiometry N [1] was 2.

AAAAAAA (ssDNA) [7mer poly-A]: no binding (Ec CapW WT).

TTTTTTT (ssDNA) [7mer poly-T, unlabeled]: binds (Rl CapW WT).

TTTTTTT (ssDNA) [7mer poly-T, FAM]: no binding (Ec CapW R200A [2]); no binding (Ec CapW S158E [3]).

UUUUUUU (ssRNA) [7mer poly-U RNA]: no binding (Ec CapW WT).

B1: CapW 30 bp palindromic binding site (dsDNA)
DNA 1: TAAAAACTGATCGTATAATAATGCTACGCT
DNA 2: AGCGTAGCATTATTATACGATCAGTTTTTA
B1: binds (Ec CapW R200A [4]); binds (Ec CapW S158E [5]).
